Measurements taken from US20050048050A1 (CITY OF HOPE, published 2005).

Target: T1, purified human insulin-like growth factor I receptor (IGF-IR) (human, UniProt P08069 31-1367, limits assumed)
T1 construct: The natural receptor is made of alpha and beta subunits from one precursor; also called IGF-R; human IGF-1 receptor
Assay: SPR (BIAcore), IGF-IR immobilised on the chip, antibody as analyte
Experimental: The affinity constants of 1H7 (10⁹ M⁻¹) and αIGF-IR scFv-Fc (10⁸ M⁻¹) for IGF-IR were determined using a BIAcore instrument (BIAcore Inc., Piscataway, N.J.). Analytes, at various concentrations, were passed over IGF-IR-immobilized chips (0.3 μg/chip) at a flow rate of 5 μl/min.

T1 sequence (P08069 31-1367 limits assumed, form in doubt): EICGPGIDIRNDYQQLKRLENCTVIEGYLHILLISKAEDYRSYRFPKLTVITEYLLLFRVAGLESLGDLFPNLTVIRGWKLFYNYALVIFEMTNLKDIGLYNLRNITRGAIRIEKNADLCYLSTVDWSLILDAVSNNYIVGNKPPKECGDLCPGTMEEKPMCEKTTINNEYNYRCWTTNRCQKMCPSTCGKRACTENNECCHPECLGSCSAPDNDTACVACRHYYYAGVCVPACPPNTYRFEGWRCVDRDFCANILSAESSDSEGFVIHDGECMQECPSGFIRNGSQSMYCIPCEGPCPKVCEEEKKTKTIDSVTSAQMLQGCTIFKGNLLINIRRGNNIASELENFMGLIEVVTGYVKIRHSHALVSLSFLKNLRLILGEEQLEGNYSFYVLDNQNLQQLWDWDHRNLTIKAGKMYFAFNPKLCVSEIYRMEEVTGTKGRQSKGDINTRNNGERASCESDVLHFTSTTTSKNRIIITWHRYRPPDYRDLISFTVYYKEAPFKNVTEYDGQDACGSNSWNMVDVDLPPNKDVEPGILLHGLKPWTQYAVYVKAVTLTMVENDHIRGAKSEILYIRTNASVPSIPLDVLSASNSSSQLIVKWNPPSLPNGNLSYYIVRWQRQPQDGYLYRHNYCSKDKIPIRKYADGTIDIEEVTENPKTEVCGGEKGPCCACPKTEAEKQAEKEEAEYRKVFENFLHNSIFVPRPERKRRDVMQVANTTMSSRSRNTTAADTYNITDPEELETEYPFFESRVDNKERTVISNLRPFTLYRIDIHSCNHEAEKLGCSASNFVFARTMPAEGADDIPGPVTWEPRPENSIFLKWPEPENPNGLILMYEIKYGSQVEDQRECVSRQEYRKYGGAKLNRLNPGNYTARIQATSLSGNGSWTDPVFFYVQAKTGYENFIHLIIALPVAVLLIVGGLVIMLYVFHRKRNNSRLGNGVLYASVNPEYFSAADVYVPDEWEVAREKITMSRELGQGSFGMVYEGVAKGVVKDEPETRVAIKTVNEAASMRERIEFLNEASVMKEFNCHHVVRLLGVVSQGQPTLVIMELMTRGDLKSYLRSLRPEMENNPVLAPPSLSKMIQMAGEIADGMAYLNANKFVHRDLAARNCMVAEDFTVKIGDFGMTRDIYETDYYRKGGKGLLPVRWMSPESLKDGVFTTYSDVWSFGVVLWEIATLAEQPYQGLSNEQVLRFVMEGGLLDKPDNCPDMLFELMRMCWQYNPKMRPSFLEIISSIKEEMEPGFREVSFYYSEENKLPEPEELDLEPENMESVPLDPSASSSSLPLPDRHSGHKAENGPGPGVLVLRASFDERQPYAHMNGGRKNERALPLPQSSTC

Binder	Ka [M⁻¹]
αIGF-IR scFv-Fc (chimeric single-chain antibody against human insulin-like growth factor I receptor) (Fc fusion, Divalent antibody with an expected Mr of 120 kDa, expressed in NS0 cells and purified on protein A. The signal peptide from the mT84.66 light chain is left out; not shown: human IgG1 Fc domain (cDNA clone from Dr. J. Schlom), SalI fragment inserted into the XhoI site of pcDNA/αIGF-IR scFv) DIVMTQSHKFMSTSVGDRVNITCKASQDVNTAVAWYQQKPGQSPKLLIYWASTRHTGVPDRFTGSGSGTDFTLTISSVQAEDLTLYYCHQHYTTPYTFGGGTNLEIKGGGGSGGGSGGGGSGGGSEVKVVESGGGLVKPGGSLKLSCAASGFTFSIYAMSWVRQTPEKKLEWVASISNGGTTYYPDSVKGRFTISRDNARNILYLQMNSLRSEDTAMYYCARTFYYSFPRAMDYWGQGTSVTVSS	1e+08
mouse monoclonal antibody 1H7 (antibody, V domains shown, Whole murine monoclonal antibody; also called 1H7 mAb) VH: EVKVVESGGGLVKPGGSLKLSCAASGFTFSIYAMSWVRQTPEKKLEWVASISNGGTTYYPDSVKGRFTISRDNARNILYLQMNSLRSEDTAMYYCARTFYYSFPRAMDYWGQGTSVTVSS VL: DIVMTQSHKFMSTSVGDRVNITCKASQDVNTAVAWYQQKPGQSPKLLIYWASTRHTGVPDRFTGSGSGTDFTLTISSVQAEDLTLYYCHQHYTTPYTFGGGTNLEIK	1e+09
